Measured values as given in paper PMC10283294, “Chromosome-level genome assembly of Murraya paniculata sheds light on biosynthesis of floral volatiles” (BMC Biology, 2023).

T1: Me3G_1222 (PAAS) (Murraya paniculata, UniProt Z9VGT8ZCM8)
T1 sequence (Z9VGT8ZCM8 1-380): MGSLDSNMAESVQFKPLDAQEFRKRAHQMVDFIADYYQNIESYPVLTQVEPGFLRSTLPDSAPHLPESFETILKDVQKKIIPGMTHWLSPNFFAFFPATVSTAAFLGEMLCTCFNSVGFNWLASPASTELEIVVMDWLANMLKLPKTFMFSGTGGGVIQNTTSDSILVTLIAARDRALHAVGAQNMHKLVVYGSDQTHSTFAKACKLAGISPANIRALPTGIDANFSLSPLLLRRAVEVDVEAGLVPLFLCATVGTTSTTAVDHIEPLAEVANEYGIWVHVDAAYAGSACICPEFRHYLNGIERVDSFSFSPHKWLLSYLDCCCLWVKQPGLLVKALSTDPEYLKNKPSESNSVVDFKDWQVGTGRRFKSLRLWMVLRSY

T2: Me2G_2382 (PAAS) (Murraya paniculata, UniProt Z9M7G4IQ32)
T2 sequence (Z9M7G4IQ32 1-505): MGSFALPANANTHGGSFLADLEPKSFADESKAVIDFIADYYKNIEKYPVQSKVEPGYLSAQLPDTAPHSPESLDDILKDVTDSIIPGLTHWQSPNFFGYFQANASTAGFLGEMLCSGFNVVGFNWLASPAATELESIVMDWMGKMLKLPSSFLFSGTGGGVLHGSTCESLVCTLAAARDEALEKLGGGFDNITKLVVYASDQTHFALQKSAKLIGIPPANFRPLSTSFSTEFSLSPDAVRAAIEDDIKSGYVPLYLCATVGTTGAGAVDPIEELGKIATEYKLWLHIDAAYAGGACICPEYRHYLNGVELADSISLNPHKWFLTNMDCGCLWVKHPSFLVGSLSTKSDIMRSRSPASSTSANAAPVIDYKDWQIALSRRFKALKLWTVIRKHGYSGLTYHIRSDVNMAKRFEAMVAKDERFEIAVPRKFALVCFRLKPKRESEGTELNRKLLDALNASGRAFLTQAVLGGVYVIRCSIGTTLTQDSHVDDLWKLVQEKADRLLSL


Columns and labels:
Assay in all cases: GC-MS of phenylacetaldehyde, Lineweaver-Burk
[1] = molecular target: T1, Me3G_1222 (PAAS); format: biochemical; settings: pH 8.5 Tris-HCl, 28 °C, 0.2 mM PLP, 0.1 mM EDTA; read-out: apparent Km
[2] = test system: Me4G_0535 (PAAS); format: biochemical, Murraya paniculata; settings: pH 8.5 Tris-HCl, 28 °C, 0.2 mM PLP, 0.1 mM EDTA; read-out: apparent Km
[3] = test system: Me3G_2284 (PAAS); format: biochemical, Murraya paniculata; settings: pH 8.5 Tris-HCl, 28 °C, 0.2 mM PLP, 0.1 mM EDTA; read-out: apparent Km
[4] = molecular target: T2, Me2G_2382 (PAAS); format: biochemical; settings: pH 8.5 Tris-HCl, 28 °C, 0.2 mM PLP, 0.1 mM EDTA
[5] = test system: Me5G_1302 (PAAS); format: biochemical, Murraya paniculata; settings: pH 8.5 Tris-HCl, 28 °C, 0.2 mM PLP, 0.1 mM EDTA; read-out: apparent Km
[6] = substrate: N[C@@H](Cc1ccccc1)C(=O)O; format: biochemical, Murraya paniculata; settings: pH 8.5 Tris-HCl, 28 °C, 0.2 mM PLP, 0.1 mM EDTA

| Km [1] | Km [2] | Km [3] | Km [5] | Molecule | apparent Km [4] | Km [6] | kcat/Km [6] |
| --- | --- | --- | --- | --- | --- | --- | --- |
| 9.99 ± 0.46 mM | 2 ± 0.54 mM | 36.6 ± 4.35 mM | 9.89 ± 1.77 mM | N[C@@H](Cc1ccccc1)C(=O)O [L-phenylalanine] | kinetic characterisation of purified recombinant PAAS revealed an apparent Km for L-phenylalanine (L-Phe) | – | – |
| – | – | – | – | Me2G_2379 (PAAS) (Murraya paniculata) (protein) MGSFALPPNGNTHGRSFSADLEPKSFADEAKAVIDFIADYYKNIEKYPVQSKVEPGYLSAQLPDTAPHSPESLDDILKDVTDSIIPGLTHWQSPNFFGYFQANASTAGFLGEMLCSGFNVVGFNWLASPAATELESIVMDWMGKMLKLPSSFLFSGTGGGVLHGSTCESLVCTLAAARDEVLEKLGGGFDNITKLVVYASDQTHFALQKSAKLIGIPPANFRPLSTSFSTEFSLSPDAVRAAIEDDIKSGYVPLYLCATVGTTGAGAVDPIEELGKIATEYKLWLHIDAAYAGGACICPEYRHYLNGVELADSISLNPHKWFLTNMDCGCLWVKHPSFLVGSLSTKSDIMRSRSPASSTSANAAPVIDYKDWQIALSRRFKALKLWTVIRKHGYSGLTYHIRSDVNMAKRFEAMVAKDERFEIAVPRKFALVCFRLKPKRESEGTELNRKLLDALNASGRAFLTQAVLGGVYVIRCSIGTTLTQDSHVDDLWKLVQEKADRLLSLQEPEHARC | – | 3.7265 ± 0.83 mM | 100 M⁻¹ s⁻¹ |
| – | – | – | – | Me2G_2381 (PAAS) (Murraya paniculata) (protein) MGSFALPANANTHGGSFSADLEPKSFADEAKAVIDFIADYYKNIEKYPVQSKVEPGYLSAQLPDTAPHSPESLDDILKDVTDSIIPGLTHWQSPNFFGYFQANASTAGFLGEMLCSGFNVVGFNWLASPAATELESIVMDWMGKMLKLPSSFLFSGTGGGVLHGSTCESLVCTLAAARDEVLEKLGGGFDNITKLVVYASDQTHFALQKSAKLIGIPPANFRPLSTSFSTEFSLSPDAVRAAIEDDIKSGYVPLYLCATVGTTGAGAVDPIEELGKIATEYKLWLHIDAAYAGGACICPEYRHYLNGVELADSISLNPHKWFLTNMDCGCLWVKHPSFLVGSLSTKSDIMRSRSPASSTRANAAPVIDYKDWQIALSRRFKALKLWTVIRKHGYSGLTYHIRSDVNMAKRFEAMVAKDERFEIAVPRKFALVCFRLKPKRESEGTELNRKLLDALNASGRAFLTQAVLGGVYVIRCSIGTTLTQDSHVDDLWKLVQEKADRLLSLQEPEHAGC | – | 1.7943 ± 0.60 mM | 62.9 M⁻¹ s⁻¹ |
| – | – | – | – | Me3G_0317 (PAAS) (Murraya paniculata) (protein) MGSLTSDLELEYNSNSSINLLDSEEFRRQGHMFVDFMAEYYKTIDKYPVRSQVEPGYLKKRLPESAPYSPESVETILEDVQEHIVPGITHWQSPNYFAYFPATSSVPGILGEMLSSGFNVVGMDWISSPAAVELENIVMDWLGQMLNLPKSFLFSGNGGGVIQGTTCEALLCTLTAARDRVLKKIGRENISKLVVYSSDQTHCAFQKAAQIVGIDRKNIRAIKTTKSSSYGLSAESVLSQINLDVEAGLIPLFLCATVGTTAITAVDPLRPLCDVAKQFGMWVHVDAAYAGSACICPEFRHFIDGVECVDSFSFNPHKWLFTSLDCCCLWVKDPSCLLSTLSTNPHYLKNEATDQEPKGQEVGYKDWQITLCRRFRSLKLWLVIRNFGVANLRNFIRSHVGMAKLFERLVHSDKRFEVAFPRNFSLVCFRVTPSAVMDKLRTKYKNGTHDQYRQLSEEERTNEFNRELLESINVSGKVFMTHAIVGGIYVLRFAAGNSMTMESHVREAWTVVQEHLEAF | – | 2.7821 ± 0.73 mM | 45.2 M⁻¹ s⁻¹ |
| – | – | – | – | Me1G_2960 (PAAS) (Murraya paniculata) (protein) MDAEQLRENAHKMVDFIADYYKSIENFPVLSQVQPGYLHNLIPDSAPNHPESLQNVLDDIQEKILPGVTHWQSPNYFAYFPSNSSVAGFLGEMLSAGLNIVGFSWITSPAATELEMIVLDWLAKLLKLPEDFLSTGQGGGVIQGTASEAVLVVLLAARDEALKRVGKNSLEKLVVYASDQTHSALQKACQIGGIHRQNFRVLKTDSSTNYSLSPDSLAEAISRDLTMGLIPFFLGATVGTTSSTAVDPLLALGNIAKSNGMWFHVDAAYAGSACICPEYRQYIDGVEKADSFNMNAHKWFLTNFDCSALWVKDRNTLIQSLSTNPEFLKNKVSFYFSVHNMFLYYFLAQLSRPKSKSHLFVFVHINCIMNCPFNNVMLTVVELSTLSGENGNILASQANMVVDYKDWQIPLGRRFRSLKLWMVLRLYGLENLQGYIRNHIQLAKHFEGLVAQDSRFEVVTPRIFSLVCFRLLPPHNDEDHGNKLNHNLLDAVNSTGKIFISHTVLSGKYILRFAVGAPLTEGRHVNAAWEVVRDRASALLARLSTE | – | 1.7851 ± 0.66 mM | 55.9 M⁻¹ s⁻¹ |
